US8487082B2, “Synthetic scFv analogue to the 6313/G2 (anti angiotensin II type 1 receptor) monoclonal antibody variable regions” (Queen Mary & Westfield College, priority 2008, dated 2013)
Where two headings read alike, the source gives them in different places.

Experiments:
MDA-MB-231 cells = assay: In vitro hollow fiber assay; assay type: cell-based; details: MDA-MB-231, in the presence of angiotensin II, 48 h
Procedure: (§1) Hollow Fiber procedures followed the method of Hollingshead. (Hollingshead et al Life Sci 57 131-41 (1995)).
(§2) Polyvinylidene difluoride (PVDF) hollow fibers (500 kDa cut-off, 1 mm inner diameter; Spectrum Europe B.V., Breda, Netherlands) were flushed through with 70% ethanol using a blunt 21 gauge needle and 10 ml syringe. Fibers were then immersed in 70% ethanol for 72 hours, flushed through again with 70% ethanol, then distilled water, and then autoclaved at 131° C. Finally, before loading cell suspensions, fibers were flushed through with RPMI 1640 culture medium. Cells (MCF-7, T47D, and MDA-MB-231) were introduced into fibers at densities of 2.5 to 3.0×10^6 cells/ml. Fibers were then heat-sealed at 2 cm intervals and placed in Petri dishes containing 3 ml of the cell appropriate medium.
(§3) Cell viability was measured using a modified MTT assay. Fibers were incubated in RPMI 1640 with 20% FBS containing 1 mg/ml MTT, and incubated at 37° C. under […], 5% CO2 for 4 hours. The reagent was aspirated, and 2 ml sterile filtered 2.5% protamine sulphate (0.9 g NaCl, 2.5 g protamine sulphate in 100 ml water) was added. Specimens were stored at 4° C. for a minimum of 24 hours in the dark to fix the formazan product. Fresh protamine sulphate (2.5%) was added and fibers were stored for a further 2 to 4 hours at 4° C. Each fiber was transferred to a well in a 24 well plate, cut in half and air-dried overnight, protected from light. Dimethyl sulphoxide (DMSO) (300 μl) was added to each well and the formazan product extracted. An aliquot (190 μl) from each well was transferred to a 96 well plate and absorbance read at 540 nm using a Multiskan Ascent photometric microplate reader (Thermo labsystem). Treated values were calculated as a percentage of the controls.

MCF-7 cells = assay: In vitro hollow fiber assay; assay type: cell-based; details: MCF-7, in the presence of angiotensin II, 48 h
Procedure: as §1, §2, §3

T47D cells [1] = assay: In vitro hollow fiber assay; assay type: cell-based; details: in the presence of angiotensin II, 48 h
Procedure: as §1, §2, §3

T47D cells [2] = assay: Apoptosis - caspase-3/7 activity; assay type: cell-based
Description: Cells were harvested using Trypsin/EDTA and counted.

MCF7 cells = system: MCF7 cells
Procedure: Activation of caspases during apoptosis was determined using the Apo-ONE homogenous caspase-3/7 assay (Promega Corp, Southampton UK), according to the manufacturer's instructions. Briefly, cells were grown to 90% confluence and washed three times with sterile PBS. Cells were harvested using Trypsin/EDTA and counted. Cells (10^4 per well) were seeded into a 96 well plate and incubated with R6313/G2 at concentrations from 0.1 to 3 μM in the presence or absence of 100 nmol/L angiotensin II, total volume 150 μl, for 24 and 48 hours. After incubation, caspase-3/7 Z-DEVD-R110 substrate (100 μl) was added to each well. Blank wells contained reagent alone, and controls omitted the antibody and/or angiotensin II. Fluorescence was measured every 2 hours over an 8 hour period using a Fluostar Optima spectrofluorimeter (BMG Laboratories, Offenburg Germany), with an excitation wavelength of 485 nm and an emission wavelength of 535 nm.

[3] = Body weight and mortality in xenograft assay; assay type: in vivo, mice; details: for body weight: MCF7 xenograft mice
Procedure: Mice were injected s.c. on the right-flank, with 150 μl sterile PBS containing 7.5×10^6 MCF-7 cells. Tumour cells were allowed to grow for 4 weeks without hormone support, thereafter mice received weekly s.c. injections of 17β-oestradiol valerate (0.1 mg/Kg body weight), in sesame oil (Kasukabe et al., Breast Cancer Res. 7(6) R1097-110 (2005)) for a further 8 weeks. Animals were monitored daily for general health, and body weights were measured twice-weekly. Tumour size was measured 3 times per week with slide callipers, and volumes were calculated as (L×W^2)/2, where L and W are the major and minor diameters, respectively. Once tumour volumes reached 150 to 200 mm^3, mice were randomized to treatment and control groups of 8 to 10 per group. Mice were treated by subcutaneous injections of R6313/G2 in sterile PBS (0.1 ml) at doses of 0.4 mg/kg (13 nmol/kg), 0.8 mg/kg (27 nmol/Kg), and 1.36 mg/kg (45.3 nmol/kg) body weight, twice per day for seven days. Control mice received sterile PBS. At the termination of the study, animals were sacrificed by cervical dislocation. Relative body weights (%) were calculated as (Wt/Wi)×100, where Wt is the body weight at any given time and Wi is the body weight at treatment initiation. Net tumour volume was calculated as Vt-Vi, where Vt is the tumour volume at any given time and Vi is the tumour volume at the start of treatment, and expressed as a percentage of Vi.

[4] = system: cancer cells in hollow fibers; assay: In vivo hollow fiber assay (summary statements); set-up: species or system nu/nu mice
Procedure: as §1
Cell-loaded hollow fiber segments were incubated at 37° C. in culture medium overnight before implantation into pure strain 5-6 week old female balb/c nu/nu mice. Fibers were implanted into the animals under anaesthesia (2% Isofluorane). Three 2 cm fibers, each containing one of the cell lines MCF-7, T47D, or MDA-MB-231, were implanted at both subcutaneous (s.c.) and intraperitoneal (i.p.) sites into each animal. For i.p. implants, a small incision was made through the skin and musculature of the ventral abdominal wall. Fibers were placed into the peritoneal cavity and both incisions were closed with metallic suture clips (Harvard Instruments, Edenbridge UK). For s.c. implants, a small incision was made dorsally. The fibers were implanted to the left of the dorsal midline in a cranial direction. The small incision was closed with metallic suture clips. […]
Cell viability was measured using a modified MTT assay. […] An aliquot (190 μl) from each well was transferred to a 96 well plate and absorbance read at 540 nm using a Multiskan Ascent photometric microplate reader (Thermo labsystem). Treated values were calculated as a percentage of the controls.

B1: R6313/G2: murine scFv analogue of the 6313/G2 anti-AT1 receptor monoclonal antibody variable domains, SEQ ID NO:15 (protein)
scFv: YAAQPAMAQVKLQQSGPELEKPGASVKISCKASGYSFTGYNMNWVKQSNGKSLEWIGNIDPYYGGTTYNQKFKGKATLTVDKSSSTAYMQLKSLTSEDSAVYYCAREVDYWGQGTTVTVSSGGGGSGGGGSGGGGSDIELTQSPASLAVSLGQRATISYRASKSVSTSGYSYMHWNQQKPGQPPRLLIYLVSNLESGVPARFSGSGSGTDFTLNIHPVEEEDAATYYCQHIRELTRSEGTKLEIKRAAAGAPVPY
modifications: 12D
cell survival in hollow fibers in vitro (MDA-MB-231 cells): dose dependently inhibited survival
cell survival in hollow fibers in vitro (MCF-7 cells): dose dependently inhibited survival
cell survival in hollow fibers in vitro (T47D cells [1]): dose dependently inhibited survival
effect on angiotensin II inhibition of caspase-3/7 activity (T47D cells [2]; 100 nmol/L angiotensin II, 12 hours): inhibition was blocked
caspase-3/7 activity (T47D cells [2]; R6313/G2 alone, 48 hours): dose-dependent increase of caspase-3/7 activity
caspase-3/7 activity (MCF7 cells; MCF7, R6313/G2 alone): reduced caspase-3/7 activity
caspase-3/7 activity (MCF7 cells; MCF7, in the presence of angiotensin II): dose dependently increased caspase-3/7 activity
other effects in xenograft mice ([3]; 13 nmol/kg): without other effects
mortality ([3]; 0.4 mg/kg twice per day, during the treatment period): no mortality
mortality ([3]; 0.8 mg/kg group, by day 8, n=8): four died by day 8
mortality ([3]; 0.8 mg/kg twice per day, during the treatment period): no mortality
mortality ([3]; 1.36 mg/kg group, by day 8): all died by day 8
body weight ([3]; 0.4 mg/kg (13 nmol/kg) twice per day): no weight loss
body weight ([3]; 0.8 mg/kg (27 nmol/kg) twice per day): no weight loss
body weight ([3]; 1.36 mg/kg (45.3 nmol/kg) twice per day): significantly reduced
in vitro concentration giving an anti-cancer cell effect equivalent to 25 nmol/Kg in vivo ([4]; comparison of in vivo dose 25 nmol/Kg with in vitro): 3.3 µmol/L
cancer cell growth in hollow fibers ([4]; intact nu/nu mice bearing cancer cells in hollow fibers): significantly inhibited cancer cell growth
